Measurements published in patent publication US20210284694A1 (published 2021).
Each block holds one binder with its values, some of them ahead of it. Starred links: 1 amine or outer side, 2 acyl side, 3 side chain; linkers in the order of their positions; H or OH if unused. Positions of bridges follow the written chain, without caps; N, C: chain ends. Non-standard residues stand in square brackets, D forms with d. Phe(4-OMe) = COc1ccc(C[C@H](N[*:1])C(=O)[*:2])cc1; Trp(5-F) = N[C@@H](Cc1c[nH]c2ccc(F)cc12)C(=O)O; mXylylene = c1cc(C[*:1])cc(C[*:2])c1; αMeP = C[C@@]1(C(=O)O)CCCN1; Mpa = O=C(O)CCS

What was measured:
biotinylated PCSK9 [1] = biological target: T1, biotinylated PCSK9 (UniProt Q8NBP7 31-692, limits assumed, biotinylated); assay: method of the KD not told; tracer of the Alexa FRET Standard assay
T1 construct: also called europium-labeled PCSK9
T1 sequence (Q8NBP7 31-692 limits assumed): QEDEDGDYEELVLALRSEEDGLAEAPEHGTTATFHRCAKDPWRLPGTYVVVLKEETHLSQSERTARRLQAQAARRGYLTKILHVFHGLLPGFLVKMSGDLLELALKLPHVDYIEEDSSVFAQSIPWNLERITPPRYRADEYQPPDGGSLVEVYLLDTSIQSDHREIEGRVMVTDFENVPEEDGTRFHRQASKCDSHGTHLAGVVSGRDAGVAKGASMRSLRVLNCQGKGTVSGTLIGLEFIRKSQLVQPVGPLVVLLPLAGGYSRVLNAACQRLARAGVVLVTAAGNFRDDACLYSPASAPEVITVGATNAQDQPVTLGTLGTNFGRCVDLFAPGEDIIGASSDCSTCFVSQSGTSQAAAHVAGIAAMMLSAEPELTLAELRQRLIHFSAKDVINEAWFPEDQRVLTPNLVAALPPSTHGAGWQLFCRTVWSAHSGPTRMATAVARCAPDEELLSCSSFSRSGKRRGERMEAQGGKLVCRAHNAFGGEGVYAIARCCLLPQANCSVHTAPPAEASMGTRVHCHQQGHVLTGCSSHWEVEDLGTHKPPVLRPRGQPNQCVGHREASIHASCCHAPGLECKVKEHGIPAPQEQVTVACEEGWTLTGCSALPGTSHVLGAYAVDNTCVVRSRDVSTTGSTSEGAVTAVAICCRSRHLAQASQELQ

biotinylated PCSK9 [2] = biological target: T1, biotinylated PCSK9; assay: method of the KD not told; tracer of the Alexa FRET Plus assay

- Kd (biotinylated PCSK9 [1]): 83 nM
B1: Reagent A (peptide)
peptide: [Mpa]K(AlexaFluor647)G[Trp(5-F)][Trp(5-F)]DHY[αMeP]C-NH2
modifications: linker N-10 via mXylylene
notes: also called AlexaFluor647 (AF) tagged cyclic peptide; AF cyclic peptide

- Kd (biotinylated PCSK9 [2]): 35 nM
B2: Reagent B (peptide)
peptide: [Mpa]K(AlexaFluor647)[dA][Trp(5-F)][Trp(5-F)]DH[Phe(4-OMe)][αMeP]C-NH2
modifications: linker N-10 via mXylylene
notes: as for B1
